Experimental data from PMC10598736, “Structural insights into Rad18 targeting by the SLF1 BRCT domains” (The Journal of Biological Chemistry, 2023).

Columns and labels:
[1] = target: T1, full-length Rad18 S442E/S444E (2SE), strep-his-sumo-tagged (human, UniProt Q9NS91 1-495, S442E | S444E); assay: pull-down; his-strep-sumo-tagged Rad18 (50 μg) held on streptactin beads, incubated with 50 μg SLF1^tBRCT at 4 °C for 60 min; 20 mM Tris (pH 7.5), 200 mM sodium chloride, 2 mM DTT; eluted with D-desthiobiotin, SDS PAGE; details: both partners purified
T1 construct: Rad18, human, with the phosphomimetics S442E/S444E; also called S442E/S444E (2SE)-substituted Rad18; source: E. coli BL21 Rosetta (DE3), purified (same protocol as the wild type); not shown: Strep, N-terminal, kept; His, N-terminal, kept; SUMO, N-terminal, kept

[2] = target: T2, full-length Rad18 S442E, strep-his-sumo-tagged (human, UniProt Q9NS91 1-495, S442E); assay: as above; details: both partners purified
T2 construct: Rad18, human, with the phosphomimetic S442E; also called S442E-substituted Rad18; source: E. coli BL21 Rosetta (DE3), purified (same protocol as the wild type); not shown: Strep, N-terminal, kept; His, N-terminal, kept; SUMO, N-terminal, kept
T2 sequence (Q9NS91 whole entry S442E): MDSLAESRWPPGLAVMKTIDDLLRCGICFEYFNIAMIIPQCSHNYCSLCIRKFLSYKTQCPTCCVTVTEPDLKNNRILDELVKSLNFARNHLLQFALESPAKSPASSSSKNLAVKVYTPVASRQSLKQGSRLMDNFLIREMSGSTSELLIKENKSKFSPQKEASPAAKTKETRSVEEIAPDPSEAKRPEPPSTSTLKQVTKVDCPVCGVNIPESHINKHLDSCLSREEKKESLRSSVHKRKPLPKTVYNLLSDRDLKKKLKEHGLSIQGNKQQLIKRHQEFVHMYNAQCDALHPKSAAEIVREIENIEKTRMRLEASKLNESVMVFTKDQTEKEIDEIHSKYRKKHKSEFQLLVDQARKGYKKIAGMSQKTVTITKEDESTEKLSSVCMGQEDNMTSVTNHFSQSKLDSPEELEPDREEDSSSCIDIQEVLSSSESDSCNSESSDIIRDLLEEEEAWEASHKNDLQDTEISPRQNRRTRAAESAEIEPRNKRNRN

T1 sequence (Q9NS91 whole entry S442E/S444E): as the sequence (Q9NS91 whole entry S442E) above, with S444E counted along it

binding result [1]: binds
binding result [2]: binds
B1: SLF1 tandem BRCT repeat (SLF1^tBRCT), residues 1-199, wild type (domain or fragment, UniProt Q9BQI6 1-199, looked up)
chain: MEDGTPKHIIQMTGFKMEEKEALVKLLLKLDCTFIKSEKYKNCTHLIAERLCKSEKFLAACAAGKWILTKDYIIHSAKSGRWLDETTYEWGYKIEKDSRYSPQMQSAPKRWREELKRTGAPGAFHRWKVVLLVRTDKRSDSLIRVLEAGKANVILPKSSPSGITHVIASNARIKAEKEKDNFKAPFYPIQYLGDFLLEK
notes: SMC5/6 localization factor 1 (SLF1), tandem BRCT repeat at the N-terminus, residues 1-199; coding region optimized for E. coli and synthesized; also called WT; SMC5/6 localization factor 1 tBRCT; source: E. coli BL21 Rosetta (DE3), purified (Ni-NTA, heparin, gel filtration)
